Columns and labels:
SpoVG [1] = molecular target: T1, SpoVG (Borrelia burgdorferi, UniProt O51726 1-97); assay: competition
T1 sequence: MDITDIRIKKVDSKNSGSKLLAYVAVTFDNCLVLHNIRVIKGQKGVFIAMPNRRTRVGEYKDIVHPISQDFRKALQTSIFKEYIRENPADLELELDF

SpoVG [2] = molecular target: T1, SpoVG; assay: competition; remark: listed apart in the source
SpoVG [3] = molecular target: T1, SpoVG; assay: EMSA

UAUGUACUUUAAGCGGGAGGCUUAUAA (ssRNA) [RNA-17]
binding result (SpoVG [1]): binds

UAUGUACAAAAAGCGGGAGGCUUAUAA (ssRNA) [RNA-03]
binding result (SpoVG [1]): binds

UAUGUACUUUUUGCGGGAGGCUUAUAA (ssRNA) [spoVG RNA]
IC50 (SpoVG [2]): 1030 nM | Kd (SpoVG [3]): 59 nM

UAUGUACUUAAAGCGGGAGGCUUAUAA (ssRNA) [RNA-20]
binding result (SpoVG [1]): binds

— PMC11086051
